Experimental data as given in patent publication US20230063794A1, “STAPLED TRIAZOLE CO-AGONISTS OF THE GLUCAGON AND GLP-1 RECEPTORS” (Merck Sharp & Dohme LLC, priority 2019, published 2023).
Starred links: 1 amine or outer side, 2 acyl side, 3 side chain; linkers in the order of their positions; H or OH if unused. Positions of bridges follow the written chain, without caps; N, C: chain ends. Non-standard residues stand in square brackets, D forms with d. Groups on a side chain read outwards from the residue. No end group written: not given here. *: point of attachment. Lys(N3) = [N-]=[N+]=NCCCC[C@H](N)C(=O)O; γGlu = O=C(O)[C@H](CCC(=O)[*:2])N[*:1]; Met(O2) = CS(=O)(=O)CC[C@H](N)C(=O)O; Palmitoyl = CCCCCCCCCCCCCCCC(=O)*; dPra = C#CC[C@@H](N)C(=O)O; Nle = CCCC[C@H](N)C(=O)O; Aib = CC(C)(N)C(=O)O

Legend:
[1] = target: human Glucagon receptor (GCGR) (human, UniProt P47871 26-477); test: cell-based or functional assay
[2] = target: human GLP-1 receptor (GLP1R) (human, UniProt P43220 24-463); test: cell-based or functional assay

Chain of human Glucagon receptor (GCGR) (P47871 26-477): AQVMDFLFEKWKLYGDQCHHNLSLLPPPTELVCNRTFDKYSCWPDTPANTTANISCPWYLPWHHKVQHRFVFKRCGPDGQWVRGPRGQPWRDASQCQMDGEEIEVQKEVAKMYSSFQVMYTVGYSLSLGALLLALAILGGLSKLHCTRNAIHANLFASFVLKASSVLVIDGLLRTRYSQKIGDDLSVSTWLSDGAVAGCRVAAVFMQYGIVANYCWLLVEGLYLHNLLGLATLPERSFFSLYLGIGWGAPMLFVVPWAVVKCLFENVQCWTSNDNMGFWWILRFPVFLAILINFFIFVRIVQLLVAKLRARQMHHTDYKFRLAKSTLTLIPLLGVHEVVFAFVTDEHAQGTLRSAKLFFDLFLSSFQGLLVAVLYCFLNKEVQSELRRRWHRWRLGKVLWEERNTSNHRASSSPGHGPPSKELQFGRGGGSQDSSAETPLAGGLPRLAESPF

| Binder | GCGR EC50 human (nM), cAMP activity assay [1] [nM] | GLP1R EC50 human (nM), cAMP activity assay [2] [nM] |
| --- | --- | --- |
| H[Aib]QGTFTSDK([γGlu-γGlu-Palmitoyl])SKYLD[Aib][dPra]AAQ[Lys(N3)]FVQWL[Nle]DT-NH2 (triazole 17-21) [TP841] | 0.819 | 0.414 |
| H[Aib]QGTFTSDK([γGlu-γGlu-Palmitoyl])SKYLD[dPra]RAA[Lys(N3)]DFVQWL[Met(O2)]DTK-{γGlu-NH2} (triazole 16-20) [TP845] | 0.134 | 0.027 |
| H[Aib]QGTFTSDKSKYLD[Aib]RAAQDFV[dPra]WLM[Lys(N3)]TK-{γGlu-NH2} (triazole 24-28; also: lower-case v at 23 not defined) [TP533] | 5 | 3.11 |
| H[dS]QGTFTSDK([γGlu-γGlu-Palmitoyl])SKYLDARAA[dPra]DFV[Lys(N3)]WLLDT-NH2 (triazole 20-24) [TP732] | 0.052 | 0.123 |
| H[dS]QGTFTSDK([γGlu-γGlu-Palmitoyl])SKYLDA[dPra]AAQ[Lys(N3)]FVQWLLDT-NH2 (triazole 17-21) [TP733] | 0.279 | 0.54 |
| HXQGTFTSDXSKYLDARAAQDFVXWLLXT (D-Ser at 2; Lys 10 conjugated to γEγE-C16 fatty acid; pra at 24 and Nle(εN3) at 28 cyclized to a triazole containing ring; C-terminal amide) [TP835] | 0.143 | 0.199 |
| H[Aib]QGTFTSDKSKYLD[Aib]RAAQDFV[Lys(N3)]WLM[dPra]TK-{γGlu-NH2} (triazole 24-28) [TP532] | 1.07 | 0.14 |
| H[Aib]QGTFTSDK([γGlu-γGlu-Palmitoyl])SKYLD[Aib][dPra]AAQ[Lys(N3)]FVQWL[Met(O2)]DTK-{γGlu-NH2} (triazole 17-21) [TP849] | 0.25 | 0.041 |
| HXQGTFTSDXSKYLDERAAXDFVXWLLDT (D-Ser at 2; Lys 10 conjugated to γEγE-C16 fatty acid; Nle(εN3) at 20 and pra at 24 cyclized to a triazole containing ring; C-terminal amide) [TP487] | 0.09 | 0.22 |
| HXQGTFTSDXSKYLDERAAXDFVXWLLDT (D-Ser at 2; Lys 10 conjugated to γEγE-C16 fatty acid; pra at 20 and Nle(εN3) at 24 cyclized to a triazole containing ring; C-terminal amide) [TP488] | 0.04 | 0.042 |
| H[dS]QGTFTSDK([γGlu-γGlu-Palmitoyl])SKYLD[dPra]RAA[Lys(N3)]DFVQWLLDT-NH2 (triazole 16-20) [TP731] | 0.03 | 0.034 |
| H[Aib]QGTFTSDK([γGlu-γGlu-Palmitoyl])SKYLD[Aib]RAA[dPra]DFV[Lys(N3)]WL[Met(O2)]DTK-{γGlu-NH2} (triazole 20-24) [TP847] | 0.107 | 0.024 |
| H[Aib]QGTFTSDK([γGlu-γGlu-Palmitoyl])SKYLD[dPra]RAA[Lys(N3)]DFVQWL[Nle]DT-NH2 (triazole 16-20) [TP837] | 0.048 | 0.042 |
| H[Aib]QGTFTSDK([γGlu-γGlu-Palmitoyl])SKYLD[Aib]RAAQDFV[dPra]WL[Met(O2)][Lys(N3)]TK-{γGlu-NH2} (triazole 24-28) [TP851] | 0.109 | 0.025 |
